Key:
[1] = biological target: recombinant hFc-LY6S-iso1 fusion protein (Homo sapiens, UniProt P0DTL4); assay: immunoblot
[2] = biological target: native LY6S-iso1 protein (hLY6S-E, with its endogenous signal peptide) expressed in HEK293 cells (Homo sapiens, UniProt P0DTL4); assay: immunostaining of cells or tissue
[3] = biological target: endogenous LY6S-iso1 protein in human spleen cells (Homo sapiens, UniProt P0DTL4); assay: immunostaining of cells or tissue

Measured: binding result

native LY6S-iso1 protein (hLY6S-E, with its endogenous signal peptide) expressed in HEK293 cells, sequence (P0DTL4 27-134): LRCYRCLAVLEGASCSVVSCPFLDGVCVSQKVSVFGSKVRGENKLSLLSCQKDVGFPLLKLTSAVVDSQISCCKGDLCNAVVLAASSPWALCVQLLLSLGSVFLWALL
endogenous LY6S-iso1 protein in human spleen cells, sequence (P0DTL4 27-134): as above
recombinant hFc-LY6S-iso1 fusion protein, sequence (P0DTL4 27-134): as above

B1: anti-LY6S-iso1 monoclonal antibody 5E12 (antibody, V domains shown)
VH: QVQLKQSGAELVRPGASVKLSCKAWGYTFTGYEMHWVKQTPVHGLEWIGAIYPGSGGTAYNQKFKGQATLTVDKSSNTAYIELSSLTSEDSAVYYCTVYDFWGQGTTLTVSS
VL: DVVMTQTPLSLPVGLGDHASISCRSSQSLLKSDGNTYLHWYLQKSGQSPKLLIYKVSNRFSGVPDRFSGSGSGTDFTLKISRVEAEDLGVYFCSQSTHVPYTFGGGTKLEIK
binds: all assays above
